Where a SMILES comes first, the peptide text is derived from it. Where no end group is shown, it is not given here. [ ]: non-standard residue; d: D form. The star is where a group is joined. Biotin = O=C1N[C@H]2[C@H](CS[C@H]2CCCCC(=O)*)N1; pY = N[C@@H](Cc1ccc(OP(=O)(O)O)cc1)C(=O)O

One experiment has as its target T1, GST-SHP-1.SH2(C) (Mus musculus, UniProt P29351).
T1 construct: recombinant fusion proteins corresponding to the isolated N- and C-SH2 domains of SHP-1; made in house; host or cells: E. coli DH5α
T1 sequence (P29351 110-213 limits assumed): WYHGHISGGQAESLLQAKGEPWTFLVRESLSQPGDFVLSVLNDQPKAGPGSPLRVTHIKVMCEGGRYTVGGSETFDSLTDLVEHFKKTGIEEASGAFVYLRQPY
Put plainly: Surface plasmon resonance (BIAcore), SHP-1 C-SH2 domain. In kind it is binding, murine. Conditions: phosphorylated peptide immobilized; 5 μl/min. Here is the method:
(§1) Fusion proteins and surface plasmon resonance analysis. Surface plasmon resonance (SPR) measurements were performed on a BIAcore™ (Pharmacia). The GST-SHP-1.SH2(NC), GST-SHP-1.SH2(N), GST-SHP-1.SH2(C), GST-SHIP.SH2 fusion proteins generated from the murine phosphatase cDNA, were purified from DH5α lysates. Briefly, overnight culture at 37° C. in LB medium containing 50 μg/ml ampicillin was diluted 1/10 in fresh medium, and incubated until the absorbance at 600 nm reaches 1-2. At that point, IPTG was added (1 mM), and incubation continued for an additional 4 hours at 37° C. After centrifugation, bacteria pellet was resuspended in TENGN buffer (50 mM Tris pH 8, 1 mM EDTA, 10% glycerol, 1% NP40, 1 mM DTT, 1 mM PMSF, 10 μg/ml aprotinin and 10 μg/ml leupeptine). Bacteria were lysed by sonication. After centrifugation, supernatant was incubated with Glutathione-Sepharose 4B beads (Pharmacia) overnight at 4° C. with slow shaking. After 3 washes with 50 mM Tris pH 8, elution of the fusion protein was carried out using 50 mM Tris pH 8 supplemented with 10 mM reduced glutathione. Before their use in BIAcore™ experiments, fusion proteins were dialyzed in HBS buffer (10 mM HEPES, 150 mM NaCl, 3.4 mM EDTA). Protein purity was assessed by 12.5% SDS-PAGE, and Coomassie blue staining. The running buffer used in all BIAcore™ experiments consisted of HBS buffer supplemented with 0.05% surfactant P20. For preparation of microchips coated with phosphorylated peptides, immunopure streptavidine (Sigma) was first immobilized onto CMS-sensorchip. Then, biotinylated peptides were injected, and their binding to streptavidine-coated microchips was assessed using anti-phosphotyrosine 4G10 mAb (UHI).
(§2) The measurement of phosphorylated p58.2 peptide binding to GST-SHP-1.SH2(N) and GST-SHP-1.SH2(C) fusion proteins was at a constant 5 μl/min flow rate. In the representative experiment of which results are reported in the above table I, 130 and 160 RU of respectively p58.2.1 and p58.2.2 peptides were immobilized on microchips. The regeneration was performed using HBS buffer supplemented with 0.03% SDS. Results are expressed as corrected resonance units (CRU) corresponding to the raw RU values subtracted from background RU value due to the injection medium. […] koff and kon were calculated from three independent measurements using the BLAevaluation 2.0 software. Kd was calculated from koff/kon.
(In general: SPR reads the build-up and loss of mass on a sensor chip optically.)

For the next experiment, the target named is T2, GST-SHP-1.SH2(N) (Mus musculus, UniProt P29351).
T2 construct: recombinant fusion proteins corresponding to the isolated N- and C-SH2 domains of SHP-1; made in house; host or cells: E. coli DH5α
T2 sequence (P29351 4-100 limits assumed): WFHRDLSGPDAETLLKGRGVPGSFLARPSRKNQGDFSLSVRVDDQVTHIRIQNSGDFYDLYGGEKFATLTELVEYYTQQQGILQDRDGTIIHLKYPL
Put plainly: Surface plasmon resonance (BIAcore), SHP-1 N-SH2 domain. In kind it is binding, murine. On the procedure:
as §1, §2

In experiment [1] the target is phosphorylated NKG2A N-term peptide (N-terminal ITIM) (human). Put plainly: SPR (BIAcore); lower end of the range, tied by Table 4 to GST-SHP-2.SH2(N+C) and the N-terminal ITIM (1.38).
Experiment [2] has the same target. Put plainly: SPR (BIAcore), 25 RU phosphopeptide on streptavidin chip, GST fusion injected.
The target in experiment [3] is phosphorylated NKG2A C-term peptide (C-terminal ITIM) (human). The description is as above.
The target of experiment [4] is T3, SHIP polyinositol phosphatase from RBL-2H3 cell lysates (rat (cell line RBL-2H3), UniProt P97573 1-1190, limits assumed).
T3 construct: Detected by immunoblot with anti-SHIP antiserum
T3 sequence (looked up): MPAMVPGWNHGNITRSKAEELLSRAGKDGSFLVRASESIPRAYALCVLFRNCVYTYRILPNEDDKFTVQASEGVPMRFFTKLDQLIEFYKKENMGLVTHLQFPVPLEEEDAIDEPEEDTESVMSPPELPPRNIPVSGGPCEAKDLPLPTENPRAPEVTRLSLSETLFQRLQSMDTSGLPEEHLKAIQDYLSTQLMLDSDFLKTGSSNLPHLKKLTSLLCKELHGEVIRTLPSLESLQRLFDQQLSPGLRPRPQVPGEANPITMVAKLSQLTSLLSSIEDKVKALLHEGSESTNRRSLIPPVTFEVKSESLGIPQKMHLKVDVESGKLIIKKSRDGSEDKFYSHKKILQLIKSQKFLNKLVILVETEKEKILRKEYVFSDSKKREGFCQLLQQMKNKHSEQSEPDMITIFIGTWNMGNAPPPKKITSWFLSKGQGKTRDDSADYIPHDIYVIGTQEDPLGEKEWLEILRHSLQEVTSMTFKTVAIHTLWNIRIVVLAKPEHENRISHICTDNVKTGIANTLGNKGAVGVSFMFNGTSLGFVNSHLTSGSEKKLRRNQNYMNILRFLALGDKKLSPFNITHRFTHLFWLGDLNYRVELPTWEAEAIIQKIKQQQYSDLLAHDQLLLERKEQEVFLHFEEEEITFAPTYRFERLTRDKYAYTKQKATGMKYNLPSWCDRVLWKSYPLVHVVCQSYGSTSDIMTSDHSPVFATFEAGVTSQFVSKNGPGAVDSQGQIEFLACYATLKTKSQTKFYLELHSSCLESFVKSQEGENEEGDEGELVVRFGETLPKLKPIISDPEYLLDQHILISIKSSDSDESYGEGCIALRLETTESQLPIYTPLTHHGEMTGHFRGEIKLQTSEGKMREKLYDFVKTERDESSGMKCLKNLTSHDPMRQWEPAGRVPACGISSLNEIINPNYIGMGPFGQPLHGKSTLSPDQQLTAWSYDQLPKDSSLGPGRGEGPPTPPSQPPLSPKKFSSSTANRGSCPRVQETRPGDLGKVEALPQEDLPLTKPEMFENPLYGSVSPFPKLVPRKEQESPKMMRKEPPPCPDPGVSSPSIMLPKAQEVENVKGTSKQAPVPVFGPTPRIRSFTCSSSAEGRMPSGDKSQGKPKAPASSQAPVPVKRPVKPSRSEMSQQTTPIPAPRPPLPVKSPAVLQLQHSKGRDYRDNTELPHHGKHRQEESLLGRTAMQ
Put plainly: cell lysate adsorption to peptide beads, immunoblot (RBL-2H3), FIG. 15A. Here is the method: In an attempt to characterize the function of these putative ITIMs, cell lysates were incubated with phosphorylated and nonphosphorylated synthetic peptides corresponding to the N-terminal and the C-terminal I/VxYxxL stretches present in NKG2A intracytoplasmic domain. Cell lysates absorbed to peptides were then assayed by immunoblotting for the presence of the phosphatases known to interact with phosphorylated ITIMs, i.e. the protein tyrosine phosphatases SHP-1 and SHP-2, as well as the polyinositol phosphate phosphatase, SHIP. In parallel, lysates adsorption were performed using control peptides corresponding to ITIMs present in Ig-like ITIM bearing receptors such as human KIRs (p58.2/CD158b, a receptor for HLA-Cw3) and mouse FcγRIIB, as well as in mouse lectin-like ITIM-bearing receptor, such as Ly-49A.
As shown in FIG. 15A (lanes 1 and 2), both N- and C-terminal I/VxYxxL stretches present in NKG2A associate with SHP-1 and SHP-2 in vitro, but no binding to SHIP was detected. Similar patterns of association were obtained using the phosphorylated ITIM peptides of […] and p58.2 KIR (FIG. 15A, lanes 3 to 5). In contrast, FcγRIIB phosphorylated ITIM peptides also associate with SHIP (FIG. 15A, lane 6). No association of phosphatases with nonphosphorylated peptides corresponding to FcγRIIB (FIG. 15A, lane 7) and NKG2A N- and C-terminal I/VxYxxL stretches was detected. When nonphosphorylated and phosphorylated peptides were used to adsorb lysates prepared from ³⁵S methionine/cysteine-labeled cells, only two bands around 64 and 68 kDa selectively associate with both phosphorylated NKG2A N- and C-terminal I/VxYxxL stretches, as compared to nonphosphorylated ones (FIG. 15B). The 64 and 68 kDa proteins which bind to phosphorylated NKG2A peptides correspond to SHP-1 and SHP-2 apparent molecular weight respectively, supporting the immunoblotting results. Therefore, our results define the two NKG2A I/VxYxxL stretches as ITIMs which appear to function similarly to other ITIMs present in inhibitory receptors for MHC class I molecules, i.e. KIRs and Ly-49 molecules. Using recombinant soluble tandem SH2 domains of SHP-1 and SHP-2, we confirmed by surface plasmon resonance that both NKG2A ITIM phosphopeptides directly associate with the SH2 domains of SHP-1 and SHP-2, but not with the SH2 domain of SHIP (FIG. 16).

Experiment [5] deals with T4, GST-SHIP.SH2 fusion protein (murine, UniProt Q9ES52 8-104).
T4 construct: also called SH2 domain of SHIP; not shown: Glutathione S-transferase (GST) fusion partner
T4 sequence (looked up): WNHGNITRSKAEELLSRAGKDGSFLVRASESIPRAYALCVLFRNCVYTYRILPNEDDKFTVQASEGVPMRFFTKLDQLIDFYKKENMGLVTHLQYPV
Put plainly: SPR (BIAcore) with recombinant GST fusion protein. On the procedure: as §1, with “Before their use in BIAcore™ experiments, fusion proteins were dialyzed in HBS buffer (10 mM HEPES, 150 mM NaCl, 3.4 mM EDTA).” left out, “The running buffer used in all BIAcore™ experiments consisted of HBS buffer supplemented with 0.05% surfactant P20. For preparation of microchips coated with phosphorylated peptides, immunopure streptavidine (Sigma) was first immobilized onto CMS-sensorchip.” left out

[6] abbreviates: phosphorylated peptide immobilized, 5 μl/min.

Take `CC(C)C[C@H](NC(=O)[C@H](CCC(N)=O)NC(=O)[C@H](C)NC(=O)[C@H](Cc1ccc(OP(=O)(O)O)cc1)NC(=O)[C@@H](NC(=O)[C@@H](NC(=O)[C@H](CCC(=O)O)NC(=O)[C@H](CCC(N)=O)NC(=O)[C@@H]1CCCN1C(=O)[C@H](CC(=O)O)NC(=O)[C@H](CCC(N)=O)NC(=O)[C@H](CCC(=O)O)NC(=O)[C@H](CC(=O)O)NC(=O)CCCC[C@@H]1SC[C@@H]2NC(=O)N[C@@H]21)C(C)C)[C@@H](C)O)C(=O)N[C@@H](CC(N)=O)C(=O)N[C@@H](Cc1c[nH]cn1)C(=O)O` [p58.2.1, DEQDPQEVTY303AQLNH] (HELM PEPTIDE1{[O=C1N[C@H]2[C@H](CS[C@H]2CCCCC(=O)[*:2])N1].D.E.Q.D.P.Q.E.V.T.[O=C([C@H](Cc1ccc(OP(=O)(O)O)cc1)N[*:1])[*:2]].A.Q.L.N.H}$$$$V2.0): on GST-SHP-1.SH2(C), the off-rate constant (koff) – broadly, a measure of how fast the partners let go of each other – turned out to be 0.0007 s⁻¹ and the on-rate (kon) (usually a measure of how fast the partners come together) worked out at 5000 M⁻¹ s⁻¹. For the same molecule, at GST-SHP-1.SH2(N), binding was characterised by a dissociation constant (Kd) of 423 nM. In addition, at GST-SHP-1.SH2(N) (setting [6]), the off-rate (koff) came out at 0.042 s⁻¹ and the kon was 100000 M⁻¹ s⁻¹.
As to “GST-SHP-2.SH2(N+C) fusion protein (from UniProt P35235 1-220)”, the Kd (usually the concentration at which binding is half-saturated) in experiment [1] lay in the range of 1 to 5 nM. In experiment [2], this molecule gave a dissociation constant (Kd) of 1.38 nM, a dissociation rate constant (koff) of 0.00142 s⁻¹ and an on-rate (kon) of 1.03e+06 M⁻¹ s⁻¹. In addition, in experiment [3], the Kd was 1.57 nM, the koff was found to be 0.00132 s⁻¹ and the on-rate constant (kon) amounted to 840000 M⁻¹ s⁻¹.

B1: phosphorylated p58.2.1 peptide (N-terminal KIR ITIM) (peptide)
peptide: Biotin-DEQDPQEVT[pY]AQLNH
notes: also called p58.183.1; phosphorylated N-terminal KIR ITIM peptide
Take B1: the binding result in experiment [4] and in experiment [5] was “no binding” in each case.

The values above are taken from US20040038894A1, “Compounds for modulating cell negative regulations and biological applications thereof” (INSTITUT NATIONAL DE LA SANTE ET DE LA RECHERCHE MEDICALE …, priority 1996, published 2004).
